Data on five molecules can be found in patent US20220153832A1 (PIONYR IMMUNOTHERAPEUTICS, published 2022).

The term EC50 denotes the midpoint of the concentration-response curve. Broadly, the koff is a measure of how fast the partners let go of each other. A word on the kon: it is the rate constant with which the complex forms.

Experiment [1] has as its target T1, N-terminally polyhistidine tagged human MARCO ECD (147-520), recombinant (human, UniProt Q9UEW3 147-520).
T1 construct: also called PI-RG-3000; recombinant human MARCO; not shown: N-terminal polyhistidine tag
T1 sequence: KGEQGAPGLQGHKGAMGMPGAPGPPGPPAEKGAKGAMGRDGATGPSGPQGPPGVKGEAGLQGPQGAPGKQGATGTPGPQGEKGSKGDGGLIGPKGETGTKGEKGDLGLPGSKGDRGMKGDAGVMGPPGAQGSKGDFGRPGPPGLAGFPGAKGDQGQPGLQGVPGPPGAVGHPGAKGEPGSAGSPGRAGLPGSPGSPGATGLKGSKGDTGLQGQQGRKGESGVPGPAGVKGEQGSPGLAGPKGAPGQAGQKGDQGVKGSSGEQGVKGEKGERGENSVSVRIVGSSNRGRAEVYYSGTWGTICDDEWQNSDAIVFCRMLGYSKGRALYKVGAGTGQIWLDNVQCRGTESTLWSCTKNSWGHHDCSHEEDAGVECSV
Kind of experiment: ELISA on recombinant human MARCO, 10 mM EDTA. The method, then: (§1) After the plates were incubated at room temperature for 1 hour or 4° C. overnight, the plates were wash 3 times with ELISA wash buffer (PBS/0.05% TWEEN-20), then hybridoma supernatant (1:5 dilution) or purified antibody (1 ug) was diluted in DPBS/Ca2+/2% FBS, DPBS without Ca2+/2 mM EDTA/2% FBS, DPBS without Ca2+/10 mM EDTA/2% FBS, and DPBS without Ca2+/50 mM EDTA/2% FBS. Plates again were incubated at room temperature for 1 hour.

The target in experiment [2] is T1, N-terminally polyhistidine tagged human …. In words: ELISA on recombinant human MARCO, 50 mM EDTA. The method, then:
as §1
(ELISA stands for enzyme-linked immunosorbent assay.)

For experiment [3], the target named is T2, Human Macrophage Receptor with Collagenous Structure (MARCO), full length, on cells (human, UniProt Q9UEW3 1-520).
T2 construct: the cell type is named under assay; also called huMARCO; HuMARCO
T2 sequence: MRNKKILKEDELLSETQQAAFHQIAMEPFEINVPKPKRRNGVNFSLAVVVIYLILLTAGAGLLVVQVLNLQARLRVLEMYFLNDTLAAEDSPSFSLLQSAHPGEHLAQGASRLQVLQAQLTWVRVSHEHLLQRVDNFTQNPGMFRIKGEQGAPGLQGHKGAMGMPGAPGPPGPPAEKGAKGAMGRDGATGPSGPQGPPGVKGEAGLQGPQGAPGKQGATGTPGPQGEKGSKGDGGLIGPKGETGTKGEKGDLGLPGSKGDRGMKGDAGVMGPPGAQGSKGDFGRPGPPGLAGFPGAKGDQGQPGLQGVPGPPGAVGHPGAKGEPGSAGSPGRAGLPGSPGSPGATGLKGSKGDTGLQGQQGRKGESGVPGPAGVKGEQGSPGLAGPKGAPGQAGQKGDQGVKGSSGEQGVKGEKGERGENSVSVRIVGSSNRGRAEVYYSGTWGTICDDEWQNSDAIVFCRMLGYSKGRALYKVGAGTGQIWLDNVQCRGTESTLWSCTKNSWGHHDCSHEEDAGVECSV
Kind of experiment: flow cytometry, 293T (HuMARCO). The method, then: Supernatants were removed and cell pellets were resuspended in Ca²⁺+ and Mg²⁺+ Dulbecco's phosphate-buffered saline (D-PBS) at 1×10⁶ cells/ml. 100,000 cells/well were plated onto U-bottom 96-well plates for staining and all centrifugation steps were performed at 1500 rpm at 4° C. for 5 min and samples were kept protected from light throughout the protocol. Cells were pelleted and resuspended in 100 μl of Zombie NIR viability dye (BioLegend) prepared by diluting Zombie NIR dimethyl sulfoxide (DMSO) stock 1000-fold in D-PBS. Cells were stained by incubation for 10 min at room temperature (RT) in the dark, followed by quenching the staining reaction with the addition of 100 μl of Staining Medium (D-PBS containing 2% FBS and 2 mM ethylenediaminetetraacetic acid (EDTA). Cells were pelleted and resuspended in 100 μl of the different antibodies and hybridomas supernatants needed for screening and corresponding isotype controls in freshly prepared staining medium, such as PI-M014 and mIgG2b isotype. All mAbs were tested at the final top concentration of 100 nM (15 μg/ml) followed by an 8-point three-fold serial dilution, including 0 mg/ml control. Staining was carried out for 1 hour (hr) on ice, followed by 2 washes in Staining Medium. Cells were then pelleted and resuspended in 100 μl of allophycocyanin (APC)-conjugated goat anti-mouse IgG (Fc-specific) secondary antibody, prepared by 500-fold dilution of the antibody stocks in Staining Medium, and incubated for 30 min on ice. Plates were then washed two times with Staining Medium, followed by resuspension in 150 μl of the same buffer for acquisition on the flow cytometer (Attune NxT, Life Technologies). Flow cytometry data were analyzed using FlowJo software (version 10.6.1) and data were processed and further analyzed in Microsoft Excel and GraphPad Prism software (version 8). Half-maximal effective concentrations (EC₅₀) were calculated based on geometric mean fluorescence intensities (gMFI). In case when the plates were not able to be analyzed on the cytometer, cells were pelleted after the washes and fixed in 100 μl of 2% paraformaldehyde (PFA), prepared by diluting the 16% (w/v) stock (Thermo Fisher) in DPBS, for 15 min at RT. Cells were then pelleted and the fixative was removed, followed by resuspension in 150 μl of Staining Medium and stored at 4° C. until acquisition on the flow cytometer.

Experiment [4] deals with T3, N-terminal his-tagged mouse MARCO protein, recombinant (mouse, UniProt Q60754 150-518).
T3 construct: The entry holds the His tag, the CLD and the SRCR domain; also called mMARCO (RG3016); PI-RG-3016
T3 sequence: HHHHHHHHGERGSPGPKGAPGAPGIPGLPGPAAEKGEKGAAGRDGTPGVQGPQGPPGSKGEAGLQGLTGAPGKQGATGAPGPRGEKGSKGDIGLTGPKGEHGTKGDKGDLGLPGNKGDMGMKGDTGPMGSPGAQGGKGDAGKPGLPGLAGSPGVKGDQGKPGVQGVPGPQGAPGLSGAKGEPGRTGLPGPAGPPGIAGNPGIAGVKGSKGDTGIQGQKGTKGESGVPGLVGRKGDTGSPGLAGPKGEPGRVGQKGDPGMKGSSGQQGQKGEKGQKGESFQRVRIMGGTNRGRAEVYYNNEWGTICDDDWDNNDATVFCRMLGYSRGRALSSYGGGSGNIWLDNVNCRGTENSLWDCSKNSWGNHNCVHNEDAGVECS
In words: Biacore; antigen construct not stated. On the technique in general: Surface plasmon resonance follows binding to a sensor surface in real time, without labels.

B1: PI-HX-3031 (antibody)
heavy: QVQLKESGPGLVQPSQTLSLTCTVSGFSLTSYHVSWVRQPPGKGLEWMGAIWTGGSIAYNSLLKSRLSISRDTSKSQVFLKMNSLQTEDTATYYCARDLSDYYSSYTSFDYWGQGVMVTVSTAETTAPSVYPLAPGTALKSNSMVTLGCLVKGYFPEPVTVTWNSGALSSGVHTFPAVLQSGLYTLTSSVTVPSSTWSSQAVTCNVAHPASSTKVDKKIVPRECNPCGCTGSEVSSVFIFPPKTKDVLTITLTPKVTCVVVDISQNDPEVRFSWFIDDVEVHTAQTHAPEKQSNSTLRSVSELPIVHRDWLNGKTFKCKVNSGAFPAPIEKSISKPEGTPRGPQVYTMAPPKEEMTQSQVSITCMVKGFYPPDIYTEWKMNGQPQENYKNTPPTMDTDGSYFLYSKLNVKKETWQQGNTFTCSVLHEGLHNHHTEKSLSHSP
light: DIQMTQSPASLSTSLGETVSIECLASEGISNDLAWYQQKSGKSPQLLIYAASRLQDGVPSRFSGSGSGTRYSLKISGMQPEDEADYFCQQSYKYPLTFGSGTKLEIKRADAAPTVSIFPPSTEQLATGGASVVCLMNNFYPRDISVKWKIDGTERRDGVLDSVTDQDSKDSTYSMSSTLSLTKADYESHNLYTCEVVHKTSSSPVVKSFNRNEC
notes: Parental rat hybridoma, rat IgG2a
Regarding B1, the “ELISA signal (A450)” value in experiment [1] was 0.0589; in experiment [2], 0.0754. This molecule also gave a concentration for a half-maximal effect (EC50) in experiment [3] of 0.141 nM.

B2: PI-HX-3043 (antibody, rat IgG2a)
heavy: QVNLLQSRAALVKPGASVKLSCKASGYTFTDYYLHWVKQSHAKSLEWIGYINPNNAYTSYNEKFKSKATLTVDKSTNTAYMELSRLTSADSATYYCARDTTDYYNLHFAYWGQGTLVTVSSAETTAPSVYPLAPGTALKSNSMVTLGCLVKGYFPEPVTVTWNSGALSSGVHTFPAVLQSGLYTLTSSVTVPSSTWSSQAVTCNVAHPASSTKVDKKIVPRECNPCGCTGSEVSSVFIFPPKTKDVLTITLTPKVTCVVVDISQNDPEVRFSWFIDDVEVHTAQTHAPEKQSNSTLRSVSELPIVHRDWLNGKTFKCKVNSGAFPAPIEKSISKPEGTPRGPQVYTMAPPKEEMTQSQVSITCMVKGFYPPDIYTEWKMNGQPQENYKNTPPTMDTDGSYFLYSKLNVKKETWQQGNTFTCSVLHEGLHNHHTEKSLSHSP
light: DIQMTQSPASLSASLGETVSIECLTSEGISNDLAWYQQKSGKSPQLLIYDASRLEDGVPSRFSGSGSGTRYSLKISGMQTEDEADYFCQQSYKYPLTFGSGTKLEIKRADAAPTVSIFPPSTEQLATGGASVVCLMNNFYPRDISVKWKIDGTERRDGVLDSVTDQDSKDSTYSMSSTLSLTKADYESHNLYTCEVVHKTSSSPVVKSFNRNEC
notes: as for B1
B2: the “ELISA signal (A450)” value in experiment [1] amounted to 0.06; in experiment [2], 0.1. For the same molecule, in experiment [3], the response was half-maximal at 0.438 nM (EC50).

B3: PI-HX-3021 (antibody, V domains shown)
VH: QVRLVQSGTALVRPGASVRMSCTASGYSFTDYWVSWVKQSHGQSLEWIGEIYPNSGTTNFNEKFEGKATLTVDKSTSTAYMELSRLTSEDSAIYYCTGEGTFDYWGQGVMVTVSS
VL: EIVLTQSPTTMAASPGEKVTITCRPSSSLSNMHWFQQKSGTSPKPWIYDTSKLASGVPDRFSGSGSGTSYSLTISSMEAEDAATYYCLQRSSYPPTFGAGTKLELK
notes: Rat IgG2a hybridoma antibody; Not the effector dead PI-3021; also called PI-3007 (name of the recombinant form)
Consider B3, for which, in experiment [4], the koff was 2.11e-05 s⁻¹ and the kon amounted to 191000 M⁻¹ s⁻¹.

B4: PI-HX-3016 (antibody, rat IgG1, V domains shown)
VH: EVQLVESGGGLVKPGASLKLSCVASGFTFSDDWMNWVRQTPGKAMEWIGDIKYDGSYTNYVPSLKNRLTISRDNAKNTLYLQMTNVRSEDTATYYCTSGGVFDYWGQGVMVTVSS
VL: EIVLSQSPTTMAASPGEKVTITCRASSSVSYMHWFQQKSGTSPKPWIYDTSKLASGVPDRFSGSGSGTSYSLTISSMEAEDAATYYCLQRSGYPPTFGAGTKLEVK
notes: Rat IgG1 hybridoma antibody
As for B4, in experiment [4], the koff is 1.27e-06 s⁻¹ and the kon amounted to 184000 M⁻¹ s⁻¹.

B5: PI-HX-3061 (antibody, rat IgG2a)
heavy: EVQLVESGGGLVQPGSSLKLSCVASKFTFSNYGMNWIRQAPKKGLEWIALIYYNSNNKYYADSVKGRFTISRDNSKNTLYLEMNSLRSEDTAMYYCAKSLTGGSDYFDSWGQGVMVTVSSAETTAPSVYPLAPGTALKSNSMVTLGCLVKGYFPEPVTVTWNSGALSSGVHTFPAVLQSGLYTLTSSVTVPSSTWPSQTVTCNVAHPASSTKVDKKIVPRNCGGDCKPCICTGSEVSSVFIFPPKPKDVLTITLTPKVTCVVVDISQDDPEVHFSWFVDDVEVHTAQTRPPEEQFNSTFRSVSELPILHQDWLNGRTFRCKVTSAAFPSPIEKTISKPEGRTQVPHVYTMSPTKEEMTQNEVSITCMVKGFYPPDIYVEWQMNGQPQENYKNTPPTMDTDGSYFLYSKLNVKKEKWQQGNTFTCSVLHEGLHNHHTEKSLSHSP
light: DVQMTQSPSYLAASPGESVSISCKASKSIGTFLAWYQEKPEKTNKLLIYSGSTLQSGTPSRFSGSGSGTDFTLTIRNLEPEDFAVYYCQQHDEYPFTFGSGTKLEIKRADAAPTVSIFPPSTEQLATGGASVVCLMNNFYPRDISVKWKIDGTERRDGVLDSVTDQDSKDSTYSMSSTLSLTKADYESHNLYTCEVVHKTSSSPVVKSFNRNEC
notes: Parental rat hybridoma, rat IgG2a; cross reactive with human and mouse MARCO
In the case of B5, a half-maximal effect in experiment [3] (EC50) was put at 0.49 nM.
